Measurements published in US20070099822A1, “Regulation of tissue mineralization and phosphate metabolism by asarm peptides” (priority 2003, published 2007).
“Also recorded” adds a separate entry of the source.

What was measured:
male ICR Swiss mice = assay: Example VI: subcutaneous PO4-ASARM-peptide or etidronate, calcein fluorescence and Sanderson osteoid staining; format: in vivo; settings: four layers visible in vehicle group
Method: Subcutaneous administration of PO4-ASARM-peptide, etidronate (EHDP), and calcein. Three separate groups of male ICR Swiss mice (4-5 weeks) were subcutaneously injected once a day (9:00AM), for 12 days except for days 6 and 7 with 50 μL solutions of either (1) Eitidronate (EHDP) (10 mg/kg/day); (2) PO4-ASARM-peptide (2 mg/kg/day); or (3) vehicle consisting of 5 mM HEPES pH 7.4/150 mM NaCL/0.1% BSA. The synthetic PO4-ASARM-peptide was dissolved in vehicle (1.0 mg/mL). Etidronate was first dissolved in 150 mM NaCl and then buffered to pH 7.5 with 1M NaOH to give a 5 mg/mL solution. The 10 mg/kg/day doses of etidronate have previously been reported to inhibit mineralization in rats and were used as positive controls (Trechsel, et al., Am J Physiol 232(3):E298-305, 1977; Bonjour, et al., Am J Physiol 229(2):402-8, 1975). All three groups were subcutaneously injected with calcein (20 mg/kg/day) on days 3, 5, […]. The degree of calcein fluorescence and/or fluorescence-quenching is an indicator of mineralization status (see next section). The calcein injections when given were administered 1 h after the daily injections of PO4-ASARM-peptide, EHDP or vehicle. Animals were then terminated humanely and calvariae plus femurs/tibia were fixed in 70% ethanol (non-decalcified). After fluorescence imaging (see FIG. 35) calvariae were processed in plastic and stained with Sanderson's stain (see below). Five animals per group were used for statistical analysis of fluorescence quenching and histological Sanderson staining.
Calcein fluorescence in mice calvariae, hind-limbs & fluor-imager analysis of mineralization. A Bio-Rad (Hercules, Calif.) FluorImager^max fluorescent imager was used to simultaneously image all the samples from each of the 3 groups (15 animals; five animals per group). This consisted of 10 tibia/femurs and 5 calvariae per group. Samples were placed on top of the FluorImager plate contained within a light-tight box. Ultra-violet light was used to generate calcein-mediated epi-fluorescence and the fluorescent-image was captured on a −40° C., peltier-cooled, 1,340×1040 pixel CCD resolution, CCD digital-camera. Quantitation of fluorescence was carried out using Quantity-1 (Bio-Rad, Hercules, Calif.) fluorescence-software. Pixel saturation was prevented by internal software calibration and exposure adjustment. All fluorescence readings were thus accurately quantitative and non-saturating. Photo-micrographic UV fluorescent analysis of calvarial cross sections embedded in plastic and mounted as slides (<100 micrometer sections) was also undertaken and a description of the fixation and processing is given in the next section.
Sanderson-staining and fluorescence detection of calvarial osteoid & mineralized bone. Staining of non-decalcified calvarial sections was performed using the method described by Sanderson and Bachus (Staining technique to differentiate mineralized and demineralized bone in ground sections, J Histotechnol 20(2): 119-122, 1997). This technique provides differential staining between unmineralized osteoid and mineralized bone. Prior to staining, calvariae were dissected and attached tissue removed. Calvariae were then placed in 70% ethanol for further fixation as described by Sanderson and Bachus (supra). After fixing and processing undecalcified calvariae were embedded in plastic (LR-white acrylic resin (London Resin Co., Reading, England)) as previously described (Garrett, et al., Selective inhibitors of the osteoblast proteasome stimulate bone formation in vivo and in vitro, J Clin Invest 111(11):1771-1782, 2003). Plastic embedded sections were ground to <100 micrometers using a specialized grinding-pestle as described by Donath and Breuner (A method for the study of undecalcified bones and teeth with attached soft tissues. The Sage-Schliff (sawing and grinding) technique, J Oral Pathol 11(4):318-26, 1982). […]

CHO cell tumors = assay: Example IV: CHO cell tumors expressing MEPE in athymic nude mice; format: in vivo
Method: Six groups of athymic nude mice were injected with the one of the following: normal saline, CHO cells, CHO cells containing an empty vector, CHO cells expressing MEPE (CHO-MEPE), CHO cells expressing PHEX (CHO-PHEX), and CHO cells expressing PHEX and MEPE (CHO-PHEX-MEPE). Tumor size was assessed based on combined tumor weight at nine different time points.

| Molecule | lamellar calcein fluorescent layers in calvarial cross-sections (male ICR Swiss mice) | tumor size (combined tumor weight) (CHO cell tumors; CHO cells expressing MEPE vs CHO cells with empty vector, nude mice) | 1,25-vitamin D3 serum levels (CHO cell tumors; CHO-MEPE and CHO-PHEX-MEPE groups vs groups not expressing MEPE) | serum phosphate (CHO cell tumors; after thirteen days, CHO-MEPE and CHO-PHEX-MEPE groups) |
| --- | --- | --- | --- | --- |
| H-CFSSRRRDDSSESSDSGSSSESDGD-OH [ASARM-peptide] | complete absence |  |  |  |
| Hu-MEPE: purified insect expressed full-length recombinant human MEPE (Matrix Extracellular Phosphoglycoprotein) (protein) PTFQPQTEKTKQSCVEEQRQEEKNKDNIGFHHLGKRINQELSSKENIVQERKKDLSLSEASENKGSSKSQNYFTNRQRLNKEYSISNKENTHNGLRMSIYPKSTGNKGFEDGDDAISKLHDQEEYGAALIRNNMQHIMGPVTAIKLLGEENKENTPRNVLNIIPASMNYAKAHSKDKKKPQRDSQAQKSPVKSKSTHRIQHNIDYLKHLSKVKKIPSDFEGSGYTDLQERGDNDISPFSGDGQPFKDIPGKGEATGPDLEGKDIQTGFAGPSEAESTHLDTKKPGYNEIPEREENGGNTIGTRDETAKEADAVDVSLVEGSNDIMGSTNFKELPGREGNRVDAGSQNAHQGKVEFHYPPAPSKEKRKEGSSDAAESTNYNEIPKNGKGSTRKGVDHSNRNQATLNEKQRFPSKGKSQGLPIPSRGLDNEIKNEMDSFNGPSHENIITHGRKYHYVPHRQNNSTRNKGMPQGKGSWGRQPHSNRRFSSRRRDDSSESSDSGSSSESDGD |  | significantly reduced; also recorded: dramatically reduced size | decrease in serum levels | hypophosphatemia; also recorded: decrease in serum phosphate |
